Data taken from patent US20230050056A1, “METHOD FOR SCREENING PORE-FORMING MEMBRANE PROTEINS, MEMBRANE TR[…] MOLECULAR SWITCHES” (TECHNISCHE UNIVERSITÄT DARMSTADT, priority 2019, published 2023).
Residue numbers refer to the chain shown, from its start.

B1: S^21-71 M4A (protein)
chain: MKSADKISTGIAYGTSAGSAGYWFLQWLDQVSPSQWAAIGVLGSLVLGFLTYLTNLYFKIREDRRKAARGE
modifications: Mutant of S21-71 anti-pinholin of bacteriophage P21
B2: S^107-M3A (protein)
chain: MKAPEKHDLLAAILAAKEQGIGAILAFAMAYLRGRYNGGAFTKTVIDATMCAIIAWFIRDLLDFAGLSSNLAYITSVFIGYIGTDSIGSLIKRFAAKKAGVEDGRNQ
modifications: Mutant of S107 anti-pinholin of bacteriophage lambda
B3: S^21-68: Wild-type of the S^21-68 pinholin of bacteriophage P21 with pronounced and defined pore-forming properties (protein)
chain: MDKISTGIAYGTSAGSAGYWFLQWLDQVSPSQWAAIGVLGSLVLGFLTYLTNLYFKIREDRRKAARGE
modifications: Bacteriophage P21
B4: T4 holin Wild-type: Wild-type of the T4 pinholin of bacteriophage T4 with highly pronounced pore-forming properties (protein)
chain: MAAPRISFSPSDILFGVLDRLFKDNATGKVLASRVAVVILLFIMAIVWYRGDSFFEYYKQSKYETYSEIIEKERTARFESVALEQLQIVHISSEADFSAVYSFRPKNLNYFVDIIAYEGKLPSTISEKSLGGYPVDKTMDEYTVHLNGRHYYSNLKFAFLPTKKPTPEINYMYSCPYFNLDNIYAGTITMYWYRNDHISNDRLESICAQAARILGRAK
modifications: Bacteriophage T4
B5: Clone P7D10 (protein)
chain: B1 chain with K2A, S3G, A4W
modifications: Mutant of S21-71 anti-pinholin of bacteriophage P21
B6: Clone P3G3 (protein)
chain: B1 chain with K2W, S3R, A4G
modifications: Mutant of S21-71 anti-pinholin of bacteriophage P21
B7: Clone P3E5 (protein)
chain: B1 chain with K2F, S3Q, A4W
modifications: Mutant of S21-71 anti-pinholin of bacteriophage P21
B8: Clone P14E5 (protein)
chain: B1 chain with K2Y, S3L, A4E
modifications: Mutant of S21-71 anti-pinholin of bacteriophage P21
B9: Clone P14C11 (protein)
chain: B1 chain with K2N, S3F, A4E
modifications: Mutant of S21-71 anti-pinholin of bacteriophage P21
B10: Clone P15D3 (protein)
chain: B1 chain with K2D, S3W, A4D
modifications: Mutant of S21-71 anti-pinholin of bacteriophage P21

What follows are molecules tested on inner membrane of E. coli (assay: not given). Conditions: not given.
Type: cell-based, E. coli BL21(DE3)
With “HokB: Pore-forming membrane peptide; forms part of a bacterial efflux or toxin/antitoxin system (MKHNPLVVCLLIICITILTFTLLTRQTLYELRFRDGDKEVAALMACTSR; listed as Escherichia coli)” the “iGluSNFr fluorescent signal after co-expression (L-Glu outflow)” value (“iGluSNFr fluorescent signal” for short) was “reduction in the fluorescence”. For B1, the “iGluSNFr fluorescent signal” value was “reduction in the fluorescence”. In the case of B2, the “iGluSNFr fluorescent signal” value is reported as “reduction in the fluorescence”.

Each molecule was assayed on E. coli (assay: G-GECO1 single-cell fluorescence microscopy in a microfluidic cultivation chamber (Example 11)). Conditions: not given.
B3 was tested, and the “cell division after expression” value was “stop quickly” and the “cellular integrity measured at the form of the cells” value was “remains intact over a comparatively long period of time”. With B4 the “cell division after expression” value was “stop quickly”, the “time window before loss of cellular integrity or outflow of the sensor” value was 30 min and the “time within which the fluorescent signal decreases again” value was at most 30 min.

Same assay, conditions: pCTRL2.T7.100 constructs, 0.5 mM IPTG
For B3, the “G-GECO1 fluorescent signal after expression” value was “increase quickly”. With B4 the “G-GECO1 fluorescent signal after expression” value was “increase quickly”.

These molecules were tested on inner membrane of E. coli (assay: G-GECO1 fluorescence screening of the 3xNNK S2168 pinholin library in microtiter plates (Example 12)). Conditions: measured at the half-maximum time c; N-terminal variants of S21-71.
Description: Colonies of BL21(DE3) on LB agar from 3. were picked and cultivated in deep well plates with 300 μl of LB medium with the necessary antibiotics overnight for about 16 h at 37° C. and 1300 rpm.
After cultivating individual clones from 4. overnight, the OD600 of the precultures in microtiter plates was adjusted to 0.1, and the samples, 200 μL each, were shaken at 37° C. and 180 rpm for 30 min. Within the framework of the pCTRL2-^3×NNKS^2168 library, 271 clones were thus picked. Within the framework of the pCTRL2.T7.100.sRBS-^3×NNKS^2168 library, 576 clones were picked.
Subsequently, all nanopore variants were then induced with 0.5 mM IPTG, and the fluorescence was measured over another 190 min.
General information: The measurement in the reader is carried out at 30° C. every 3 min. The plate is shaken at 180 rpm between the measurements. The OD600 and the fluorescence (Ex: 485 nm; Em: 525 nm) are measured. The volume in the cavities is 200 μl after addition of all inductors.
For the analysis, the curves were fitted empirically with equation 1 in order to quantitatively determine the half-maximum time c or the slope d, for example.
With B5 the “Comment: effect on pore formation” value was “Inhibitory”. In the case of B6, the “Comment: effect on pore formation” value is reported as “Inhibitory”. B7 was tested, and the “Comment: effect on pore formation” value was “Inhibitory”. In the case of B8, the “Comment: effect on pore formation” value is reported as “Accelerating”. In the case of B9, the “Comment: effect on pore formation” value is reported as “Accelerating”. B10 was tested, and the “Comment: effect on pore formation” value was “Accelerating”.

Same assay, conditions: sigmoid fit with equation 1 (high d = low slope); pCTRL2.T7.100.sRBS library, G-GECO1
For B5, the “Slope [d]” value was 22.49. In the case of B6, the “Slope [d]” value is reported as 47.62. B7 was tested, and the “Slope [d]” value was 28.25. For B8, the “Slope [d]” value was 4.908. B9 was tested, and the “Slope [d]” value was 6.835. B10 was tested, and the “Slope [d]” value was 6.727.

Same assay, conditions: sigmoid fit with equation 1; pCTRL2.T7.100.sRBS library, G-GECO1, 0.5 mM IPTG
B5 was tested, and the “Half-maximum time [c]” value was 304.1. With B6 the “Half-maximum time [c]” value was 358.7. With B7 the “Half-maximum time [c]” value was 483.1. B8 was tested, and the “Half-maximum time [c]” value was 166.1. For B9, the “Half-maximum time [c]” value was 172.3. With B10 the “Half-maximum time [c]” value was 187.4.
